Experimental data taken from US20080280834A1, “Compounds and methods for inhibiting apoptosis” (University of Pittsburgh of the Commonwealth System of …, priority 2005, published 2008).
Like-named read-outs stand apart in the source and are kept apart here. Values belong to the compound of their own block, whether it stands above or below them. Residues, ends and D or L forms follow the SMILES beside them. No end group written: not given here.

What was measured:
[1] = target: T1, TNFR1 (Mus musculus, UniProt P25118); assay: Inhibition of the TNFR / TNFR1 pathway (EC50); format: cell-based; details: Table 8
T1 sequence (P25118 30-454): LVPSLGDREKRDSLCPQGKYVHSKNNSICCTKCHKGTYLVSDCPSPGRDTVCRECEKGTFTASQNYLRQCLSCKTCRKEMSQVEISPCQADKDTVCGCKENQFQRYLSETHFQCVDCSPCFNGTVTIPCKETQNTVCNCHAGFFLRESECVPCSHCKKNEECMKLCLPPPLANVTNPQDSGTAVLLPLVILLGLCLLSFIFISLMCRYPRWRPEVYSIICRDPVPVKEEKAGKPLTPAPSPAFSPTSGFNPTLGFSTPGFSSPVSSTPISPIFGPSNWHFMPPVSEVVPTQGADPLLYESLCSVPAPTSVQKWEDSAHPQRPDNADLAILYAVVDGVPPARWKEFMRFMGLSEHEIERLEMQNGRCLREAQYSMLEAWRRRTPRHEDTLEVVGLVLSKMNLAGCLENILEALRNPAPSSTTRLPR
Description: This correlation implies a peptide-protein interaction mechanism, wherein whereby tightly bound peptides are capable of blocking FasL association with the receptor and as such, inhibit FasL induced apoptosis.

[2] = target: T2, FasR (Homo sapiens, UniProt P25445); assay: ELISA binding of peptides to FasR (association constant); details: for Ka (M^−1), Elongated Peptide Sequences: Table 7, peptides based on the α-Met sequence, Fas receptor; for Ka(M − 1), Measured Association Constants (Ka) for YLGA and YLGX Substituted Peptides / Ka(M^−1), Measured Association Constants (Ka) for YLGA to XLGA Substituted Peptides / Ka(M^−1), Measured Association Constants (Ka) for YLGA and YLXA Substituted Peptides / Ka(M^−1), Measured Association Constants (Ka) YLGA and YXGA Substituted Proteins: ELISA; for Ka(M − 1), Measured Association Constants (Ka) for YLGA and YLGX Substituted Peptides / Ka(M^−1), Measured Association Constants (Ka) for YLGA and YLXA Substituted Peptides / Ka(M^−1), Measured Association Constants (Ka) YLGA and YXGA Substituted Proteins: 1 nM to 1 μM; for Ka(M − 1), Measured Association Constants (Ka) for YLGA and YLGX Substituted Peptides: fourth residue varied; for Ka(M^−1), Measured Association Constants (Ka) for YLGA to XLGA Substituted Peptides: concentration range 1 nM to 1 μM, first residue varied; for Ka(M^−1), Measured Association Constants (Ka) for YLGA and YLXA Substituted Peptides: third residue varied; for Ka(M^−1), Measured Association Constants (Ka) YLGA and YXGA Substituted Proteins: second residue varied
T2 construct: Fc (IgG Fc fusion partner); purchased R&D Systems 326-FS-050
Description: (§1) Cell Lines, Chemicals, Antibodies & Proteins. Recombinant Human Fas/TNFRSF6/Fc Chimera (cat no. 326-FS-050), Human Fas Ligand/TNFSF6 (cat. No. 126-FL), Anti-human Fas TNFRSF6 Polyclonal Antibody (cat. no. AF326) and Anti-6×Histidine Cross-Linking Ab (cat no. MAB050) were purchased from R&D Systems. Anti-human, IgM-HRP (cat. no. AP320P) was purchased from Chemicon International. Phosphate buffered saline (cat. no. P3563), sodium azide (cat. no. 71289) and 3,3′,5,5′-Tetramethylbenzidine (TMB) Liquid Substrate System for ELISA (cat. no. T0440) were purchased from Sigma-Aldrich. Cliniplate 96-well microplates w/enhanced binding (cat. no. 28298-604) were purchased from VWR. Costar, 96-well, cell culture assay plates (cat. no. 3632) were ordered from Corning Incorporated. Jurkat cells (ATCC no. CRL-1990) and L929 (ATCC no. CRL-2148) were purchased from ATCC and were propagated in RPMI 1640 medium with 2 mM L-glutamine, adjusted to contain 1.5 g/L sodium bicarbonate, 4.5 g/L glucose, 10 mM HEPES, and 1 mM sodium pyruvate, 90%; 10% fetal bovine serum. CellTiter Blue Cell Viability Assay (cat. no. TB317) was purchased from Promega.
ELISA. Peptides were dissolved in a coating buffer solution (0.05M Sodium Carbonate, 0.02% Sodium Azide, pH=9.6) at the appropriate concentrations to a final concentration of 10 μM. Dilutions were made accordingly to reach desired experimental concentrations. 100 μl aliquots of the peptide solution was added to each well and incubated for 2 hours. All incubations were carried out with shaking at T=37° C. Wells were washed by pipetting solution out of each well, adding 200 μL of washing solution (PBS-Tween; 0.5%), shaking for 15 minutes and emptying each well. Three wash cycles were carried out prior to addition of 200 μL of blocking solution (1% BSA in PBS buffer) to each well followed by incubation for 2 hours. Wells were then washed (as per above procedure) three times. Protein solutions of the appropriate concentrations (Vsolution 50 μL) were then added and incubated for 2 hours. After washing three times (as per above protocol) Fas specific antibody solution (˜1:20,000) was added to each well in 100 μL aliquots and incubated for 1 hour. After washing three times (as per above protocol) IgM-HRP solution (˜1:20,000) was added to each well in 100 μL aliquots and incubated (with shaking) for 1 hour at T=37° C. Wells were washed three times prior to the addition of ready-to-use TMD, followed by incubation for 30 minutes. 2M H2SO4 (3 drops) was added to stop colorimetric reaction and the absorption was taken at 450 nm on a Perkin-Elmer, Victor3 Model automated plate reader. Data was analyzed using standard regression fits in Excel.
Effect of Amino Acid Substitution on Binding Affinities. The binding affinity of each tetrapeptide was determined by standard ELISA with a concentration range of 1 nM to 1 μM. In the first series of peptides, alterations were made only to the tyrosine residue while retaining the final three amino acids homologous in the parent sequence (LGA).

[3] = system: Jurkat cells; format: cell-based, human; details: for EC50 (nM): Table 5, Jurkat cells, peptide then recombinant FasL, cell viability
Description: as §1
Apoptosis Assay. […] Control reactions were diluted with sterile PBS buffer to final volume of 200 μL per well. Peptide solutions (in PBS buffer, pH=7.3) were added in appropriate volumes to reach the desired concentrations in each well given a total volume of 200 μL per well. Apoptosis was induced by the addition of cross-linked human FasL at a concentration of 0.5 ng/ml. Plates were then incubated under sterile conditions, with shaking in a Kendro, model Hera Cell 150 incubator at T=37° C., % CO2=5 for 3 hours. A Cell Titer Blue Cell Viability Assay kit was used (as per accompanying protocol) to determine % apoptosis in cells. Fluorescence readings (560/590 nm) were taken after 4 hours under above cited incubation conditions on a Perkin-Elmer, Victor3 Model automated plate reader. Data was analyzed using standard regression fits in Excel.
Correlating the In-vitro Binding Assays with Cellular Activity. FasL activated apoptosis is known to occur by binding of the ligand to the receptor thereby initiating a series of signaling events leading to caspase production and subsequent cell death. If the YLGA (SEQ ID NO:1) motif isolated in both the α-Met and FasL proteins, is indeed the primary sequence responsible for binding to FasR then at a given concentration, peptides of sufficient Ka values should preferably bind to the receptor. This in turn would block the binding site from FasL and inhibiting cell death in the presence of both peptide and FasL. In order to examine this possibility, Jurkat cells (known to upregulate the Fas receptor) were treated with varying concentrations of peptide and then exposed to recombinant FasL.

T2 sequence (P25445 with tags, fused parts or gaps limits assumed): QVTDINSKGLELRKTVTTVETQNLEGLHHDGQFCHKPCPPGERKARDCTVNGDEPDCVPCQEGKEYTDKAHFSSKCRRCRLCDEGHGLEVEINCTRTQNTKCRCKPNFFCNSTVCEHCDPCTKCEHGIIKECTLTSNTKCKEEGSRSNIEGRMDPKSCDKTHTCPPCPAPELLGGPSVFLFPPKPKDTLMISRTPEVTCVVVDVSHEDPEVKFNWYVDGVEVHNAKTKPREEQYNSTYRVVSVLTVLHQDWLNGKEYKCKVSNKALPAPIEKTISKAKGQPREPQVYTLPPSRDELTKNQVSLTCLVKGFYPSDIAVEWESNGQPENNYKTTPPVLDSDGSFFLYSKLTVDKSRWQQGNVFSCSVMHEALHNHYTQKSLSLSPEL

TNFR1 EC50 [1]: no inhibition
Compound: RSSYLGAVF-NH2 [RSSYLGAVF]

Ka (M^−1), Elongated Peptide Sequences [2]: 3e+08 M⁻¹
Compound: HIYLGATNYIY [HI YLG ATN YIY]

Ka (M^−1), Elongated Peptide Sequences [2]: 3e+08 M⁻¹
Compound: IYLGATNYIY [I YLG ATN YIY]

Ka (M^−1), Elongated Peptide Sequences [2]: 3e+08 M⁻¹
Compound: HHIYLGATNYIY [HHI YLG ATN YIY]

Ka (M^−1), Elongated Peptide Sequences [2]: 3e+08 M⁻¹
Compound: HHIYLGAT [HHI YLG AT]

Ka(M^−1), Measured Association Constants (Ka) for YLGA and YLXA Substituted Peptides [2]: 1e+06 M⁻¹
Compound: YLLA [tetrapeptide]

Ka (M^−1), Elongated Peptide Sequences [2]: 3e+08 M⁻¹
Compound: HHIYLGATNYI [HHI YLG ATN YI]

Ka(M − 1), Measured Association Constants (Ka) for YLGA and YLGX Substituted Peptides [2]: 3 × 10^7 M − 1
Compound: YLGI [tetrapeptide]

Ka(M^−1), Measured Association Constants (Ka) YLGA and YXGA Substituted Proteins [2]: 2e+08 M⁻¹
Compound: YIGA

Ka (M^−1), Elongated Peptide Sequences [2]: 3e+08 M⁻¹
Compound: YLGATNYIY [YLG ATN YIY]

Ka(M^−1), Measured Association Constants (Ka) for YLGA to XLGA Substituted Peptides [2]: no binding
Compound: GLGA [tetrapeptide]

The remaining lines, values behind:

Compound: YLGT [tetrapeptide]
Ka(M − 1), Measured Association Constants (Ka) for YLGA and YLGX Substituted Peptides [2]: no binding observed

Compound: ALGA [tetrapeptide]
Ka(M^−1), Measured Association Constants (Ka) for YLGA to XLGA Substituted Peptides [2]: no binding

Compound: C[C@H](NC(=O)CNC(=O)[C@H](C)NC(=O)[C@@H](N)Cc1ccc(O)cc1)C(N)=O [YAGA] (H-YAGA-NH2)
EC50 [3]: 6 nM

Compound: CC(C)C[C@H](NC(=O)[C@@H](N)CC(C)C)C(=O)NCC(=O)N[C@@H](C)C(N)=O [LLGA] (H-LLGA-NH2)
EC50 [3]: 93 nM

Compound: YLAA [tetrapeptide]
Ka(M^−1), Measured Association Constants (Ka) for YLGA and YLXA Substituted Peptides [2]: 1e+06 M⁻¹
EC50 (nM) [3]: no inhibition

Compound: ILGA [tetrapeptide]
Ka(M^−1), Measured Association Constants (Ka) for YLGA to XLGA Substituted Peptides [2]: 9e+06 M⁻¹

Compound: ELGA [tetrapeptide]
Ka(M^−1), Measured Association Constants (Ka) for YLGA to XLGA Substituted Peptides [2]: 5e+07 M⁻¹

Compound: YLGL [tetrapeptide]
Ka(M − 1), Measured Association Constants (Ka) for YLGA and YLGX Substituted Peptides [2]: 3 × 10^7 M − 1

Compound: LGA [LGA (trimer), Y-free trimer peptide]
EC50 (nM) [3]: no inhibition

Compound: YFGA [tetrapeptide]
Ka(M^−1), Measured Association Constants (Ka) YLGA and YXGA Substituted Proteins [2]: no binding

Compound: TLGA [tetrapeptide]
Ka(M^−1), Measured Association Constants (Ka) for YLGA to XLGA Substituted Peptides [2]: 2e+08 M⁻¹

Compound: YLIA [tetrapeptide]
Ka(M^−1), Measured Association Constants (Ka) for YLGA and YLXA Substituted Peptides [2]: no binding observed

Compound: RSSYLGA [RSSYLGA]
TNFR1 EC50 [1]: no inhibition
EC50 ([3]; Table 8, read-out: Fas EC50): 3.28 nM

Compound: YGGA [tetrapeptide]
Ka(M^−1), Measured Association Constants (Ka) YLGA and YXGA Substituted Proteins [2]: 1e+07 M⁻¹
decrease in measured Ka ([2]; relative to parent YLGA): 20 fold

Compound: YVGA
Ka(M^−1), Measured Association Constants (Ka) YLGA and YXGA Substituted Proteins [2]: 2e+08 M⁻¹

Compound: YTGA [tetrapeptide]
Ka(M^−1), Measured Association Constants (Ka) YLGA and YXGA Substituted Proteins [2]: no binding

Compound: CC(C)C[C@H](NC(=O)[C@@H](N)CO)C(=O)NCC(=O)N[C@@H](C)C(N)=O [SLGA] (H-SLGA-NH2)
EC50 [3]: 6 nM

Compound: HHIYLGATNY [HHI YLG ATN Y]
Ka (M^−1), Elongated Peptide Sequences [2]: 3e+08 M⁻¹

Compound: YldAA
Ka(M^−1), Measured Association Constants (Ka) for YLGA and YLXA Substituted Peptides [2]: no binding observed

Compound: HHIYLGATN [HHI YLG ATN]
Ka (M^−1), Elongated Peptide Sequences [2]: 3e+08 M⁻¹

Compound: KLGA [tetrapeptide]
Ka(M^−1), Measured Association Constants (Ka) for YLGA to XLGA Substituted Peptides [2]: 8e+06 M⁻¹

Compound: HHIYLGA [HHI YLG A]
Ka (M^−1), Elongated Peptide Sequences [2]: 3e+08 M⁻¹

Compound: DLGA [tetrapeptide]
Ka(M^−1), Measured Association Constants (Ka) for YLGA to XLGA Substituted Peptides [2]: 5e+07 M⁻¹
